# Patent publication US20150203577A1 (Chugai, published 2015)
# T1: mouse FcγRIII (mouse, UniProt P08508 31-215)
# T1 construct: also called mFcγRIII; mFcgRIII
# T1 chain: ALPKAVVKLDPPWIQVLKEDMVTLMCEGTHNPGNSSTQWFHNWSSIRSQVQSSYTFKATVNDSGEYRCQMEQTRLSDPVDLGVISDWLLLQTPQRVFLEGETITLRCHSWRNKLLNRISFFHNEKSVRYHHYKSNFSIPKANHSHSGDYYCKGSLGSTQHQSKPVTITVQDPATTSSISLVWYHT
# T2: mouse FcγRII (mouse, UniProt P08101 30-210)
# T2 construct: also called mFcγRII; mFcgRII
# T2 sequence: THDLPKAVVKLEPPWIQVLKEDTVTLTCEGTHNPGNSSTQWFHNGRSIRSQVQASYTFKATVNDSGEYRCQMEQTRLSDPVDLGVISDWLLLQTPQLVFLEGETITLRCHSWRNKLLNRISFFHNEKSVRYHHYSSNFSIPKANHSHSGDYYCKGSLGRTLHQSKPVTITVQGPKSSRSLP
# T3: mouse FcγRII (mouse, UniProt P08101 30-210)
# T3 construct: also called mFcγRII; mFcgRII
# T3 sequence: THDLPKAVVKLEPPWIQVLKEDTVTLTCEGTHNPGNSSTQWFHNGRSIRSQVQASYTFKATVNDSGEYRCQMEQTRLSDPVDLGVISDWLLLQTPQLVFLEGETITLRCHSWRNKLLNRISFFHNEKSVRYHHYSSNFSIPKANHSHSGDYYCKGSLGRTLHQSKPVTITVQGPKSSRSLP
# T4: mouse FcγRIII (mouse, UniProt P08508 31-215)
# T4 construct: also called mFcγRIII; mFcgRIII
# T4 chain: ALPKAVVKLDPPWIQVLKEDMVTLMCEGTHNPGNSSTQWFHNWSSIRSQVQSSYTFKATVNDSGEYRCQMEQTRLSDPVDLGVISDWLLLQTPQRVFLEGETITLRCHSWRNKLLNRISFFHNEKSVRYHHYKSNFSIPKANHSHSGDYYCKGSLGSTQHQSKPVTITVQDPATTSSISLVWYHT
# Legend:
# [1] = molecular target: T1, mouse FcγRIII; experiment: SPR (Biacore), antibody captured on Protein L, mFcγR as analyte
# Method: (§1) The antibody of interest was captured onto any of these sensor chips and allowed to interact with mFcγR diluted with a running buffer. The amount bound to the antibody was measured and compared among antibodies. Since the amount of mFcγR bound depends on the amount of the captured antibody, a correction value determined by dividing the amount of mFcγR bound by the amount of each captured antibody was used in the comparison. The antibody captured on the sensor chip was washed off through the reaction of 10 mM glycine-HCl (pH 1.5) to regenerate the sensor chip, which was repetitively used.
# (§2) In order to calculate the KD value of each altered antibody for FcγR, kinetic analysis was conducted according to the following method: first, the antibody of interest was captured onto any of these chips and allowed to interact with mFcγR diluted with a running buffer. For the obtained sensorgram, the assay results were globally fit into the 1:1 Langmuir binding model using Biacore Evaluation Software to calculate an association rate constant ka (L/mol/s) and a dissociation rate constant kd (1/s). From these values, the dissociation constant KD (mol/L) was calculated.
# [2] = molecular target: T2, mouse FcγRII; experiment: as above
# Method: as §1, §2
# [3] = molecular target: T3, mouse FcγRII; experiment: SPR Biacore T200, KD ratio
# Method: (§3) The antibody L chain commonly used was the L chain MRAL-k0 (SEQ ID NO: 2) of the anti-IL-6 receptor antibody tocilizumab. The antibody H chain constant region used was each of the aforementioned 8 Fc variants prepared by altering human IgG1 hIgG1 (SEQ ID NO: 3) as a template.
# (§4) Each altered antibody was analyzed for its interaction with each Fcγ receptor prepared above using Biacore T100 (GE Healthcare Japan Corp.), Biacore T200 (GE Healthcare Japan Corp.), Biacore A100, or Biacore 4000. The running buffer used was HBS-EP+ (GE Healthcare Japan Corp.). The assay temperature was set to 25° C. The sensor chips used were chips prepared by immobilizing Protein L (ACTIGEN or BioVision) onto Series S Sensor Chip CM5 (GE Healthcare Japan Corp.) or Series S Sensor Chip CM4 (GE Healthcare Japan Corp.) by the amine coupling method.
# as §2
# [4] = molecular target: T4, mouse FcγRIII; experiment: SPR Biacore T200, KD ratio
# Method: as §3, §4, §2
binder,measurement,setting,value
"H237-mIgG1/MRAL-k0 (antibody, Anti-IL-6 receptor antibody with unaltered mouse IgG1 H chain constant region; copies: 2 + 2) heavy: QVQLQESGPGLVKPSETLSLTCAVSGHSISHDHAWSWVRQPPGEGLEWIGFISYSGITNYNPSLQGRVTISRDNSKNTLYLQMNSLRAEDTAVYYCARSLARTTAMDYWGEGTLVTVSSAKTTPPSVYPLAPGSAAQTNSMVTLGCLVKGYFPEPVTVTWNSGSLSSGVHTFPAVLQSDLYTLSSSVTVPSSTWPSETVTCNVAHPASSTKVDKKIVPRDCGCKPCICTVPEVSSVFIFPPKPKDVLTITLTPKVTCVVVDISKDDPEVQFSWFVDDVEVHTAQTQPREEQFNSTFRSVSELPIMHQDWLNGKEFKCRVNSAAFPAPIEKTISKTKGRPKAPQVYTIPPPKEQMAKDKVSLTCMITDFFPEDITVEWQWNGQPAENYKNTQPIMDTDGSYFVYSKLNVQKSNWEAGNTFTCSVLHEGLHNHHTEKSLSHSPGK light: not shown",Kd,[1],282 nM
"H237-MB492/MRAL-k0 (antibody, mouse IgG1, kappa, mouse IgG1 CH variant; copies: 2 + 2) heavy: QVQLQESGPGLVKPSETLSLTCAVSGHSISHDHAWSWVRQPPGEGLEWIGFISYSGITNYNPSLQGRVTISRDNSKNTLYLQMNSLRAEDTAVYYCARSLARTTAMDYWGEGTLVTVSSAKTTPPSVYPLAPGSAAQTNSMVTLGCLVKGYFPEPVTVTWNSGSLSSGVHTFPAVLQSDLYTLSSSVTVPSSTWPSETVTCNVAHPASSTKVDKKIVPRDCGCKPCICEPNEVEDVFIFPPKPKDVLTITLTPKVTCVVVDISKDDPEVQFSWFVDDVEVHTAQTQPREEQFNSTFRSVSELPIMHQDWLNGKEFKCRVDSAAFPAPIEKTISKTKGRPKAPQVYTIPPPKEQMAKDKVSLTCMITDFFPEDITVEWQWNGQPAENYKNTQPIMDTDGSYFVYSKLNVQKSNWEAGNTFTCSVLHEGLHNHHTEKSLSHSPGK light: not shown",Kd,[2],0.338 nM
same,relative mFcγRII-binding activity (mIgG1 = 1),[2],622 fold
same,Kd,[1],25.8 nM
same,relative mFcγRIII-binding activity (mIgG1 = 1),[1],10.9 fold
"H237-MB477/MRAL-k0 (antibody, mouse IgG1, kappa, mouse IgG1 CH variant; copies: 2 + 2) heavy: QVQLQESGPGLVKPSETLSLTCAVSGHSISHDHAWSWVRQPPGEGLEWIGFISYSGITNYNPSLQGRVTISRDNSKNTLYLQMNSLRAEDTAVYYCARSLARTTAMDYWGEGTLVTVSSAKTTPPSVYPLAPGSAAQTNSMVTLGCLVKGYFPEPVTVTWNSGSLSSGVHTFPAVLQSDLYTLSSSVTVPSSTWPSETVTCNVAHPASSTKVDKKIVPRDCGCKPCICEPNEVEDVFIFPPKPKDVLTITLTPKVTCVVVDIAKDDPEVQFSWFVDDVEVHTAQTQPREEQFNSTFRSVSELPIMHQDWLNGKEFKCRVNSAAFPAPIEKTISKTKGRPKAPQVYTIPPPKEQMAKDKVSLTCMITDFFPEDITVEWQWNGQPAENYKNTQPIMDTDGSYFVYSKLNVQKSNWEAGNTFTCSVLHEGLHNHHTEKSLSHSPGK light: not shown",Kd,[2],1.07 nM
same,relative mFcγRII-binding activity (mIgG1 = 1),[2],196 fold
same,Kd,[1],94 nM
same,relative mFcγRIII-binding activity (mIgG1 = 1),[1],3 fold
"FS134 (antibody, human IgG1, kappa, human IgG1 constant region variant; copies: 2 + 2) heavy: QVQLQESGPGLVKPSETLSLTCAVSGHSISHDHAWSWVRQPPGEGLEWIGFISYSGITNYNPSLQGRVTISRDNSKNTLYLQMNSLRAEDTAVYYCARSLARTTAMDYWGEGTLVTVSSASTKGPSVFPLAPSSKSTSGGTAALGCLVKDYFPEPVTVSWNSGALTSGVHTFPAVLQSSGLYSLSSVVTVPSSSLGTQTYICNVNHKPSNTKVDKKVEPKSCDKTHTCPPCPAPELLGGPDVFLFPPKPKDTLMISRTPEVTCVVVDVSDEDPEVKFNWYVDGVEVHNAKTKPREEQYNSTYRVVSVLTVLHQDWLNGKEYKCKVSNKAYPAPIEKTISKAKGQPREPQVYTLPPSRDELTKNQVSLTCLVKGFYPSDIAVEWESNGQPENNYKTTPPVLDSDGSFFLYSKLTVDKSRWQQGNVFSCSVMHEALHNHYTQKSLSLSPGK light: not shown",relative mFcγRII-binding activity (mIgG1 = 1),[3],58.2 fold
same,relative mFcγRIII-binding activity (mIgG1 = 1),[4],20.8 fold
"FS132 (antibody, human IgG1, kappa, human IgG1 constant region variant; copies: 2 + 2) heavy: QVQLQESGPGLVKPSETLSLTCAVSGHSISHDHAWSWVRQPPGEGLEWIGFISYSGITNYNPSLQGRVTISRDNSKNTLYLQMNSLRAEDTAVYYCARSLARTTAMDYWGEGTLVTVSSASTKGPSVFPLAPSSKSTSGGTAALGCLVKDYFPEPVTVSWNSGALTSGVHTFPAVLQSSGLYSLSSVVTVPSSSLGTQTYICNVNHKPSNTKVDKKVEPKSCDKTHTCPPCPAPELLGGPDVFLFPPKPKDTLMISRTPEVTCVVVDVSHEDPEVKFNWYVDGVEVHNAKTKPREEQYNSTYRVVSVLTVLHQDWLNGKEYKCKVSNKDYPAPIEKTISKAKGQPREPQVYTLPPSRDELTKNQVSLTCLVKGFYPSDIAVEWESNGQPENNYKTTPPVLDSDGSFFLYSKLTVDKSRWQQGNVFSCSVMHEALHNHYTQKSLSLSPGK light: not shown",relative mFcγRII-binding activity (mIgG1 = 1),[3],96.7 fold
same,relative mFcγRIII-binding activity (mIgG1 = 1),[4],41.8 fold
"FS133 (antibody, human IgG1, kappa, human IgG1 constant region variant; copies: 2 + 2) heavy: QVQLQESGPGLVKPSETLSLTCAVSGHSISHDHAWSWVRQPPGEGLEWIGFISYSGITNYNPSLQGRVTISRDNSKNTLYLQMNSLRAEDTAVYYCARSLARTTAMDYWGEGTLVTVSSASTKGPSVFPLAPSSKSTSGGTAALGCLVKDYFPEPVTVSWNSGALTSGVHTFPAVLQSSGLYSLSSVVTVPSSSLGTQTYICNVNHKPSNTKVDKKVEPKSCDKTHTCPPCPAPELLGGPDVFLFPPKPKDTLMISRTPEVTCVVVDVSDEDPEVKFNWYVDGVEVHNAKTKPREEQYNSTYRVVSVLTVLHQDWLNGKEYKCKVSNKAWPAPIEKTISKAKGQPREPQVYTLPPSRDELTKNQVSLTCLVKGFYPSDIAVEWESNGQPENNYKTTPPVLDSDGSFFLYSKLTVDKSRWQQGNVFSCSVMHEALHNHYTQKSLSLSPGK light: not shown",relative mFcγRII-binding activity (mIgG1 = 1),[3],162 fold
same,relative mFcγRIII-binding activity (mIgG1 = 1),[4],86.5 fold
"FS131 (antibody, human IgG1, kappa, human IgG1 constant region variant; copies: 2 + 2) heavy: QVQLQESGPGLVKPSETLSLTCAVSGHSISHDHAWSWVRQPPGEGLEWIGFISYSGITNYNPSLQGRVTISRDNSKNTLYLQMNSLRAEDTAVYYCARSLARTTAMDYWGEGTLVTVSSASTKGPSVFPLAPSSKSTSGGTAALGCLVKDYFPEPVTVSWNSGALTSGVHTFPAVLQSSGLYSLSSVVTVPSSSLGTQTYICNVNHKPSNTKVDKKVEPKSCDKTHTCPPCPAPEWLGGPDVFLFPPKPKDTLMISRTPEVTCVVVDVSHEDPEVKFNWYVDGVEVHNAKTKPREEQYNSTYRVVSVLTVLHQDWLNGKEYKCKVSNKAYPAPIEKTISKAKGQPREPQVYTLPPSRDELTKNQVSLTCLVKGFYPSDIAVEWESNGQPENNYKTTPPVLDSDGSFFLYSKLTVDKSRWQQGNVFSCSVMHEALHNHYTQKSLSLSPGK light: not shown",relative mFcγRII-binding activity (mIgG1 = 1),[3],144 fold
same,relative mFcγRIII-binding activity (mIgG1 = 1),[4],33.2 fold
"F616 (antibody, human IgG1, kappa, human IgG1 constant region variant; copies: 2 + 2) heavy: QVQLQESGPGLVKPSETLSLTCAVSGHSISHDHAWSWVRQPPGEGLEWIGFISYSGITNYNPSLQGRVTISRDNSKNTLYLQMNSLRAEDTAVYYCARSLARTTAMDYWGEGTLVTVSSASTKGPSVFPLAPSSKSTSGGTAALGCLVKDYFPEPVTVSWNSGALTSGVHTFPAVLQSSGLYSLSSVVTVPSSSLGTQTYICNVNHKPSNTKVDKKVEPKSCDKTHTCPPCPAPELLGGPDVFLFPPKPKDTLMISRTPEVTCVVVDVSHEDPEVKFNWYVDGVEVHNAKTKPREEQYNSTYRVVSVLTVLHQDWLNGKEYKCKVSNDAYPAPIEKTISKAKGQPREPQVYTLPPSRDELTKNQVSLTCLVKGFYPSDIAVEWESNGQPENNYKTTPPVLDSDGSFFLYSKLTVDKSRWQQGNVFSCSVMHEALHNHYTQKSLSLSPGK light: not shown",relative mFcγRII-binding activity (mIgG1 = 1),[3],186 fold
same,relative mFcγRIII-binding activity (mIgG1 = 1),[4],50.1 fold
"FS135 (antibody, human IgG1, kappa, human IgG1 constant region variant; copies: 2 + 2) heavy: QVQLQESGPGLVKPSETLSLTCAVSGHSISHDHAWSWVRQPPGEGLEWIGFISYSGITNYNPSLQGRVTISRDNSKNTLYLQMNSLRAEDTAVYYCARSLARTTAMDYWGEGTLVTVSSASTKGPSVFPLAPSSKSTSGGTAALGCLVKDYFPEPVTVSWNSGALTSGVHTFPAVLQSSGLYSLSSVVTVPSSSLGTQTYICNVNHKPSNTKVDKKVEPKSCDKTHTCPPCPAPELLGGPDVFLFPPKPKDTLMISRTPEVTCVVVDVAHEDPEVKFNWYVDGVEVHNAKTKPREEQYNSTYRVVSVLTVLHQDWLNGKEYKCKVSNKAYPAPIEKTISKAKGQPREPQVYTLPPSRDELTKNQVSLTCLVKGFYPSDIAVEWESNGQPENNYKTTPPVLDSDGSFFLYSKLTVDKSRWQQGNVFSCSVMHEALHNHYTQKSLSLSPGK light: not shown",relative mFcγRII-binding activity (mIgG1 = 1),[3],138 fold
same,relative mFcγRIII-binding activity (mIgG1 = 1),[4],34.4 fold
